What was measured:
[1] = test system: Chinese Hamster Ovary CHO-K1 (CCL-61) host cell; test: Flow cytometry analysis of GS expression via UnaG fluorescence in electroporated cell pools; format: cell-based; settings: about 3 weeks post-seeding; for UnaG expression of cells (selection efficiency): MSX selection, FIGS. 3A-3B
Excerpt: Vector design: Nearly all selectable marker currently used in GS system is Cricetulus griseus-derived GS. To investigate whether the GS from other species further improve titer or screening efficiency, a set of vectors were designed as described below: • a sequence coding for an eel green fluorescent protein UnaG, a 2A self-cleaving peptide and a glutamine synthetase, placed under the control of the SV40 promoter; • two expression cassettes, in which the sequences coding for the heavy chain and light chain of a human anti-RANKL antibody denosumab were placed under the control of CMV promoters, respectively; • a sequence coding for a protein conferring resistance to ampicillin, for use in prokaryotic cells; and • a prokaryotic origin of replication.
(§1) The 2A self-cleaving peptide allowed relatively equal molar expression of the two products separated by it, namely, the green fluorescent protein UnaG and glutamine synthetase. After random integration, GS expression in each individual cell was evaluated by monitoring UnaG level using flow cytometry. Denosumab here served as the secreted reporter for assessing titers using selectable glutamine synthetase markers from different species. The vectors differed from one another by the GS-coding sequences, which were derived from Chinese hamster (Cricetulus griseus), koala (Phascolarctos cinerecus), vesper bat (Pipistrellus kuhlii), gerbil (Meriones unguiculatus), ostrich (Struthio camelus australis), junglefowl (Gallus gallus), pigeon (Columbia Livia), and snake (Pseudonaja textilis), respectively.
(§2) Electroporation and cell screening: Expression vectors described above were first linearized by the restriction endonuclease Pvul (there was one Pvul site in the ampicillin resistant gene). Then linearized vectors were introduced into the host cell using cell electroporator (Lonza Nuleofector 2b). The host cell was derived from ATCC wild-type Chinese Hamster Ovary CHO-K1 (CCL-61) and adapted to serum-free suspension culture at Shanghai ZhenGe Biotech Co. Ltd. 24 hours post electroporation, cell pools were plated into culture flasks or 96-well plates (approximately 1, 200 cells/well, 300 wells per condition) in the absence of or presence of MSX (50 μM).
Flow cytometry analysis of GS expression: About 3 weeks post-seeding, cell pools electroporated with GS gene from indicated species were analyzed using Attune NxT flow cytometer (FIGS. 3A-3C). […] As shown, when the GS from Chinese Hamster was used as the selectable marker, most tested cells (>98%) remained UnaG “negative” in the presence of the MSX, indicating low selection efficiency.

[2] = test system: Chinese Hamster Ovary CHO-K1 (CCL-61) host cell; test: Bio-Layer Interferometry (Octet) analysis of denosumab expression in supernatants of cell pools selected with GS markers; format: cell-based; settings: 50 μM MSX; for pools expressed detectable denosumab (>0.125 ug/mL): Day 20, among 300 seeded pools in 96-well plates, GS used as selectable marker; for median expression value of denosumab of positive pools: Day 20, positive pools (>0.125 ug/mL), Octet ProA biosensor
Description: Vector design: Nearly all selectable marker currently used in GS system is Cricetulus griseus-derived GS.
as §1, with “After” for “The 2A self-cleaving peptide allowed relatively equal molar expression of the two products separated by it, namely, the green fluorescent protein UnaG and glutamine synthetase. After”
as §2

Molecule | UnaG expression of cells (selection efficiency) [1] | pools expressed detectable denosumab (>0.125 ug/mL) [2] [%] | median expression value of denosumab of positive pools [2] [µg/mL] | tested cells remaining UnaG negative ([1]; in the presence of the MSX (50 μM)) [%]
koala GS: Phascolarctos cinerecus glutamine synthetase, SEQ ID NO: 1 (nucleotide SEQ ID NO: 10), used as selectable marker (protein, listed as Phascolarctos cinereus, Koala GS) MATSASSHLNKNIKQMYMNLPQGNKVLAMYIWIDGTGEGLRCKTRTLDSEPKSIDDLPEWNFDGSSTYQSEGSNSDMYLVPAALFRDPFRKDPNKLVFCEVFKYNRKPAETNLRHTCKRIMDMVTNQKPWFGMEQEYTLMGTDGHPFGWPSNGFPGPQGPYYCGVGADKAYGRDIAEAHYRACLYAGVKIVGTNAEAMPSQWEFQIGPCEGIEMGDHLWVARFILHRVCEDFGMIVTFDPKPIPGNWNGAGCHTNFSTKAMREENGLKFIEEAIERLSKRHKYHIRAYDPKGGLDNARRLTGFNETSNINEFSAGVANRGASIRIPRMVGQDKKGYFEDRRPSANCDPYAVTEALIRTCLLNETGEEPFQYKN | significant amounts of cells showed positive UnaG expression | 85.6 | 2.86 | –
Chinese hamster GS: Cricetulus griseus glutamine synthetase, SEQ ID NO: 9 (nucleotide SEQ ID NO: 18), Uniprot P04773; traditional selectable marker (protein, listed as Cricetulus griseus, Hamster GS) MATSASSHLNKGIKQMYMSLPQGEKVQAMYIWVDGTGEGLRCKTRTLDCEPKCVEELPEWNFDGSSTFQSESSNSDMYLSPVAMFRDPFRKEPNKLVFCEVFKYNQKPAETNLRHTCKRIMDMVSNQHPWFGMEQEYTLLGTDGHPFGWPSDGFPGPQGLYYCGVGADKAYRRDIMEAHYRACLYAGVKITGTYAEVKHAQWEFQIGPCEGIRMGDHLWVARFILHRVCKDFGVIATFDSKPIPGNWNGAGCHTNFSTKTMREENGLKHIKEAIEKLSKRHRYHIRAYDPKGGLDNARRLTGFHKTSNINDFSAGVADRSASIRIPRTVGQEKKGYFEARCPSANCDPFAVTEAIVRTCLLNETGDQPFQYKN | – | 4.3 | 1.07 | > 98
snake GS: Pseudonaja textilis glutamine synthetase, SEQ ID NO: 3 (nucleotide SEQ ID NO: 12), used as selectable marker (protein, listed as Pseudonaja textilis, Snake GS) MATSASSHLSKTIKQMYMKLPQGDKVQAMYIWIDGTGEFLRCKTRTLEREPKNVEDLPEWNFDGSSTFQSEGSNSDMYLVPSAMFRDPFRKDPNKLVLCEVLKYNRKPAETNLRSTCKRIMDMVSNQNPWFGMEQEYTLLGTDGHPFGWPSNGFPGPQGPYYCGVGADKAYGRDVVEAHYRACLYAGVNIGGTNAEVMPAQWEFQVGPCEGVDMGDHLWIARFILHRVCEDFGVIVSFDPKPIPGNWNGAGCHTNFSTKNMREEGGLKQIEDAIEKLGKRHQYHIRAYDPKGGLDNARRLTGFHETSNIHEFSAGVANRGASIRIPRNVGQVKKGYFEDRRPSANCDPYAVTEALVRTCLLNETGDEPFEYKN | significant amounts of cells showed positive UnaG expression | 38.0 | 1.75 | –
gerbil GS: Meriones unguiculatus glutamine synthetase, SEQ ID NO: 7 (nucleotide SEQ ID NO: 16), used as selectable marker (protein, listed as Meriones unguiculatus, Gerbil GS) MATSASSQLNKGIKQTYLALPQGEKVQAMYIWVDGTGEGLRCKTRTLDCEPKSVEELPEWNFDGSSTFQSEGSNSDMYLTPVAMFRDPFRKEPNKLVFCEVFKYNRKPAETNLRHSCKRIMEMVSNQRPWFGMEQEYTLMGTDGHPFGWPSNGFPGPQGPYYCGVGADKAYGRDIVEAHYRACLYAGVKIAGTNAEVMPAQWEFQIGPCEGVRMGDHLWVARFILHRVCEDFGVIATFDPKPIPGNWNGAGCHTNFSTKAMREENGLKFIEEAIEKLSKRHQYHIRAYDPKGGLDNARRLTGFHETSNINDFSAGVANRSASIRIPRTVGQEKKGYLEDRRPSANCDPYAVTEALVRTCLLNETGDEPFQYKN | significant amounts of cells showed positive UnaG expression | 63.6 | 2.67 | –
junglefowl GS: Gallus gallus glutamine synthetase, SEQ ID NO: 6 (nucleotide SEQ ID NO: 15), used as selectable marker (protein, listed as Gallus gallus, Junglefowl GS) MLRSLQCLLAYRVGSLPLRSWGHRLATTAHARTALASSAAMATSASSHLSKAIKHMYMKLPQGEKVQAMYIWIDGTGEHLRCKTRTLDHEPKSLEDLPEWNFDGSSTFQAEGSNSDMYLRPAAMFRDPFRKDPNKLVLCEVFKYNRQSADTNLRHTCRRIMDMVSNQHPWFGMEQEYTLLGTDGHPFGWPSNGFPGPQGPYYCGVGADKAYGRDIVEAHYRACLYAGVKIGGTNAEVMPAQWEFQVGPCEGIEMGDHLWIARFILHRVCEDFGVIVSFDPKPIPGNWNGAGCHTNFSTKNMREDGGLKHIEEAIEKLSKRHQYHIRAYDPKGGLDNARRLTGFHETSSIHEFSAGVANRGASIRIPRNVGHEKKGYFEDRRPSANCDPYAVTEALVRTCLLNETGDEPFEYKN | significant amounts of cells showed positive UnaG expression | 73.6 | 2.51 | –
pigeon GS: Columbia Livia glutamine synthetase, SEQ ID NO: 5 (nucleotide SEQ ID NO: 14), used as selectable marker (protein, listed as Columbia livia, pigeon GS) MALLRSVQCLLTYRASSYRLPALGGFVNLLQHSGGDRSATAACTRNPLVRSAAMATSASSHLSKAIKHMYMKLPQGDKVQAMYIWIDGTGEHLRCKTRTLDHEPKSLEDLPEWNFDGSSTFQSEGSNSDMYLRPAAMFRDPFRKDPNKLVLCEVFKYNRQSAETNLRHTCRRIMDMVSNQHPWFGMEQEYTLLGTDGHPFGWPSNGFPGPQGPYYCGVGADKAYGRDIVEAHYRACLYAGVKIGGTNAEVMPAQWEFQVGPCEGIEMGDHLWIARFILHRVCEDFGVIVSFDPKPIPGNWNGAGCHTNFSTKEMREDGGLKHIEEAIEKLSKRHQYHIRAYDPKGGLDNARRLTGFHETSNIHEFSAGVANRGASIRIPRSVGHEKRGYFEDRRPSANCDPYAVTEALVRTCLLNETGDEPFEYKN | significant amounts of cells showed positive UnaG expression | 52.0 | 2.27 | –
ostrich GS: Struthio camelus australis glutamine synthetase, SEQ ID NO: 2 (nucleotide SEQ ID NO: 11), used as selectable marker (protein, listed as Struthio camelus, OstrichGS) MATSASSHLSKAIKHMYMKLPQGEKVQAMYIWIDGTGEHLRCKTRTLDHEPKSLEDLPEWNFDGSSTFQAEGSNSDMYLRPAAMFRDPFRKDPNKLVLCEVFKYNRQSAETNLRHTCRRIMDMVSNQHPWFGMEQEYTLLGTDGHPFGWPSNGFPGPQGPYYCGVGADKAYGRDIVEAHYRACLYAGVKIGGTNAEVMPAQWEFQVGPCEGIEMGDHLWIARFILHRVCEDFGVIVSFDPKPIPGNWNGAGCHTNFSTKSMREDGGLKHIEEAIEKLGKRHQYHIRAYDPKGGLDNARRLTGFHETSSIHEFSAGVANRGASIRIPRNVGHEKKGYFEDRRPSANCDPYAVTEALVRTCLLNETGDEPFEYKN | significant amounts of cells showed positive UnaG expression | 65.3 | 2.57 | –
